Data published in PMC6192996, “Loss of a conserved salt bridge in bacterial glycosyl hydrolase BgIM-G1 improves substrate binding in temperate environments” (Communications Biology, 2018).

Tests used:
[1] = molecular target: T1, BglM-G1 (marine metagenome, UniProt Z9E642Q5N2); test: X-ray crystal structure, […] Å, soaked crystals; type: binding; details: 6 mM ligand soak 24 h, pH 7.5, 18 °C; active site
T1 construct: codon-optimised synthetic gene in pOE, E. coli BL21(DE3); N-terminal MHHHHHHENLYFQGH tag TEV-cleaved, scar GH; theoretical mass 49,874 Da; monomer in solution
T1 sequence (Z9E642Q5N2 16-455 H90R): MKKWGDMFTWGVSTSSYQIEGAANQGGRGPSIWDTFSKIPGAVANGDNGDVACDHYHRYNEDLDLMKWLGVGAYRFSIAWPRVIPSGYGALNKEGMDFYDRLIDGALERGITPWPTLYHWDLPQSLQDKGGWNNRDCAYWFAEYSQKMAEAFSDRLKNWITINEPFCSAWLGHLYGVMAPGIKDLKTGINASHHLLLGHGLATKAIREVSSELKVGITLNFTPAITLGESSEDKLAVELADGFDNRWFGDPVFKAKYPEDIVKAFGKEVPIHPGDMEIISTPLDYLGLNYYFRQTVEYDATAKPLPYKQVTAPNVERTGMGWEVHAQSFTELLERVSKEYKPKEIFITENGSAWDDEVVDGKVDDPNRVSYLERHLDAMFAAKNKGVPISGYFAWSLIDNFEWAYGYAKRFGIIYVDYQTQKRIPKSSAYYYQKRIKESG

[2] = system: C[C@H]1O[C@@H](Oc2ccc([N+](=O)[O-])cc2)[C@H](O)[C@@H](O)[C@H]1O; test: purified protein; details: 100 mM sodium citrate pH 6.0, 45 °C
[3] = system: O=[N+]([O-])c1ccc(O[C@@H]2O[C@H](CO)[C@@H](O)[C@H](O)[C@H]2O)cc1; test: purified protein; details: 100 mM sodium citrate pH 6.0, 45 °C

Row | Compound | X-ray crystal structure, 1.55 Å, soaked crystals [1] | Km [2] [µM] | kcat [2] [s⁻¹] | kcat/Km [2] [M⁻¹ s⁻¹] | Km [3] [µM] | kcat [3] [s⁻¹] | kcat/Km [3] [M⁻¹ s⁻¹]
1 | OC[C@H]1NC[C@H](O)[C@@H](O)[C@@H]1O [1-deoxynojirimycin] | we co-crystallized the H75R variant with the glucosidase inhibitor 1-deoxynojirimycin |  |  |  |  |  | 
2 | BglM-G1 (marine metagenome) |  | 88 ± 38 | 41.4 ± 3 | 519000 ± 146000 | 135 ± 16 | 55.6 ± 1.5 | 417000 ± 44000
